The results in this text go back to PMC9882231 (bioRxiv, 2023).

The stoichiometry N is a count of units in the complex or per binding partner.

Sequences and labels used below:
B1: Ndel1^CC (human Ndel1 coiled-coil domain, residues 1-195), as used in Figure 4 (domain or fragment)
chain: MDGEDIPDFSSLKEETAYWKELSLKYKQSFQEARDELVEFQEGSRELEAELEAQLVQAEQRNRDLQADNQRLKYEVEALKEKLEHQYAQSYKQVSVLEDDLSQTRAIKEQLHKYVRELEQANDDLERAKRATIVSLEDFEQRLNQAIERNAFLESELDEKESLLVSVQRLKDEARDLRQELAVRERQQEVTRKSA
B2: Pac1, full-length, with C-terminal FLAG-SNAPf (natural protein)
chain: MTNWQQQLPLTDTQKNELDKSVLRYLNWNYKQTVRHEHAQDYESVRHAIVTLSGFLLQESVDRQEFISNNDTSNESMVDIDELLLPKKWNSIVRLQKKIIELEQNTETLVSQIKDLNTQVSELAQFKPTTSNGTSAHNVLKWIPRNLPSCLINVESSVTSVKLHPNLPIVFVATDHGKLYAFDLFNYTIPLASLQSHTKAITSMDVLFTNYTNSSKKNYLVIVTASKDLQIHVFKWVSEECKFQQIRSLLGHEHIVSAVKIWQKNNDVHIASCSRDQTVKIWDFHNGWSLKTFQPHSQWVRSIDVLGDYIISGSHDTTLRLTHWPSGNGLSVGTGHEFPIEKVKFIHFIEDSPEIRFRTPSTDRYKNWGMQYCVSASRDRTIKIWEIPLPTLMAHRAPIPNPTDSNFRCVLTLKGHLSWVRDISIRGQYLFSCADDKSVRCWDLNTGQCLHVWEKLHTGFVNCLDLDVDFDSNVTPRQMMVTGGLDCKSNVFMR
modifications: SNAP-tag ligand dye on the SNAPf tag where labelled
B3: Ndl1^CC (Ndl1 coiled-coil domain, residues 2-132) (domain or fragment)
chain: VPNLDLETAIQIISSLETQLSELEGATKEYENDLEQVISKLKSDLLESQQQNKCNKKQITDLEIQVDELENENIQLRNKIETLQLESDRRLERNVLLEHELLDTKEALQKLRVSKEEATSGETRRNTRSLP
B4: Ndl1, full-length, with C-terminal FLAG-SNAPf (natural protein)
chain: MVPNLDLETAIQIISSLETQLSELEGATKEYENDLEQVISKLKSDLLESQQQNKCNKKQITDLEIQVDELENENIQLRNKIETLQLESDRRLERNVLLEHELLDTKEALQKLRVSKEEATSGETRRNTRSLPSQNKKMKLFKDTIKVSTTSSTLYLQNMAKTNNAARSHCNIPNTQITQSTVIATTSSV
modifications: JFX554 or JFX650 SNAP-tag ligand on the SNAPf tag
B5: LIS1, wild-type (natural protein)
chain: MVLSQRQRDELNRAIADYLRSNGYEEAYSVFKKEAELDVNEELDKKYAGLLEKKWTSVIRLQKKVMELESKLNEAKEEFTSGGPLGQKRDPKEWIPRPPEKYALSGHRSPVTRVIFHPVFSVMVSASEDATIKVWDYETGDFERTLKGHTDSVQDISFDHSGKLLASCSADMTIKLWDFQGFECIRTMHGHDHNVSSVAIMPNGDHIVSASRDKTIKMWEVQTGYCVKTFTGHREWVRMVRPNQDGTLIASCSNDQTVRVWVVATKECKAELREHEHVVECISWAPESSYSSISEATGSETKKSGKPGPFLLSGSRDKTIKMWDVSTGMCLMTLVGHDNWVRGVLFHSGGKFILSCADDKTLRVWDYKNKRCMKTLNAHEHFVTSLDFHKTAPYVVTGSVDQTVKVWECR
B6: Nip100^CC1 (Nip100 coiled-coil, residues 97-377) with eGFP (domain or fragment)
chain: EHSLLNGNAAQETIKNLQVKCESLASKLNKIKIENHELKTSVEKLSTNETVLLSKISRLDKLVKELKVENGNMKTHLDNFNHLLDASDSVMAPDLDKGTLLERSHLLQGLLDQTKLSYDKAMKVQEDLLEENTQLLEENAVLSKKISDLGLQLQQTNNTIGDLALQIEAQSKSSNIVDKLTNDNILLTSNIKALNNELEELQAKEKLDENLRITYEQLEQELRLQLSNLQSALENEKEIAGTYIEENSRLKATLESIEAKTSHKFQSLELKVNTLQEELYQ

“And” between values parts separate entries of the source, which are not always exact repeats. Equal entries are not always repeated.

The data set “mass photometry” deals with the molecule itself. The data set is described as follows: mass photometry.
The target in data set [1] is B3. The data set is described as follows: mass photometry.
For data set [2], the target named is yeast dynein complex, wild-type (WT) (S. cerevisiae, UniProt P36022;P40960;Q04949;Q02647, HaloTag or SNAP ligand dye on the tag). Put plainly: TIRF microscopy microtubule recruitment assay.
For data set [3], the target named is yeast dynein^ΔICN complex (S. cerevisiae, UniProt P36022;P40960;Q04949;Q02647, HaloTag or SNAP ligand dye on the tag). Put plainly: TIRF microscopy microtubule recruitment assay.
The target in data set [4] is B1. Put plainly: mass photometry.

yeast dynein complex, wild-type (WT), sequence (P36022 whole entry, chain 1 of 4): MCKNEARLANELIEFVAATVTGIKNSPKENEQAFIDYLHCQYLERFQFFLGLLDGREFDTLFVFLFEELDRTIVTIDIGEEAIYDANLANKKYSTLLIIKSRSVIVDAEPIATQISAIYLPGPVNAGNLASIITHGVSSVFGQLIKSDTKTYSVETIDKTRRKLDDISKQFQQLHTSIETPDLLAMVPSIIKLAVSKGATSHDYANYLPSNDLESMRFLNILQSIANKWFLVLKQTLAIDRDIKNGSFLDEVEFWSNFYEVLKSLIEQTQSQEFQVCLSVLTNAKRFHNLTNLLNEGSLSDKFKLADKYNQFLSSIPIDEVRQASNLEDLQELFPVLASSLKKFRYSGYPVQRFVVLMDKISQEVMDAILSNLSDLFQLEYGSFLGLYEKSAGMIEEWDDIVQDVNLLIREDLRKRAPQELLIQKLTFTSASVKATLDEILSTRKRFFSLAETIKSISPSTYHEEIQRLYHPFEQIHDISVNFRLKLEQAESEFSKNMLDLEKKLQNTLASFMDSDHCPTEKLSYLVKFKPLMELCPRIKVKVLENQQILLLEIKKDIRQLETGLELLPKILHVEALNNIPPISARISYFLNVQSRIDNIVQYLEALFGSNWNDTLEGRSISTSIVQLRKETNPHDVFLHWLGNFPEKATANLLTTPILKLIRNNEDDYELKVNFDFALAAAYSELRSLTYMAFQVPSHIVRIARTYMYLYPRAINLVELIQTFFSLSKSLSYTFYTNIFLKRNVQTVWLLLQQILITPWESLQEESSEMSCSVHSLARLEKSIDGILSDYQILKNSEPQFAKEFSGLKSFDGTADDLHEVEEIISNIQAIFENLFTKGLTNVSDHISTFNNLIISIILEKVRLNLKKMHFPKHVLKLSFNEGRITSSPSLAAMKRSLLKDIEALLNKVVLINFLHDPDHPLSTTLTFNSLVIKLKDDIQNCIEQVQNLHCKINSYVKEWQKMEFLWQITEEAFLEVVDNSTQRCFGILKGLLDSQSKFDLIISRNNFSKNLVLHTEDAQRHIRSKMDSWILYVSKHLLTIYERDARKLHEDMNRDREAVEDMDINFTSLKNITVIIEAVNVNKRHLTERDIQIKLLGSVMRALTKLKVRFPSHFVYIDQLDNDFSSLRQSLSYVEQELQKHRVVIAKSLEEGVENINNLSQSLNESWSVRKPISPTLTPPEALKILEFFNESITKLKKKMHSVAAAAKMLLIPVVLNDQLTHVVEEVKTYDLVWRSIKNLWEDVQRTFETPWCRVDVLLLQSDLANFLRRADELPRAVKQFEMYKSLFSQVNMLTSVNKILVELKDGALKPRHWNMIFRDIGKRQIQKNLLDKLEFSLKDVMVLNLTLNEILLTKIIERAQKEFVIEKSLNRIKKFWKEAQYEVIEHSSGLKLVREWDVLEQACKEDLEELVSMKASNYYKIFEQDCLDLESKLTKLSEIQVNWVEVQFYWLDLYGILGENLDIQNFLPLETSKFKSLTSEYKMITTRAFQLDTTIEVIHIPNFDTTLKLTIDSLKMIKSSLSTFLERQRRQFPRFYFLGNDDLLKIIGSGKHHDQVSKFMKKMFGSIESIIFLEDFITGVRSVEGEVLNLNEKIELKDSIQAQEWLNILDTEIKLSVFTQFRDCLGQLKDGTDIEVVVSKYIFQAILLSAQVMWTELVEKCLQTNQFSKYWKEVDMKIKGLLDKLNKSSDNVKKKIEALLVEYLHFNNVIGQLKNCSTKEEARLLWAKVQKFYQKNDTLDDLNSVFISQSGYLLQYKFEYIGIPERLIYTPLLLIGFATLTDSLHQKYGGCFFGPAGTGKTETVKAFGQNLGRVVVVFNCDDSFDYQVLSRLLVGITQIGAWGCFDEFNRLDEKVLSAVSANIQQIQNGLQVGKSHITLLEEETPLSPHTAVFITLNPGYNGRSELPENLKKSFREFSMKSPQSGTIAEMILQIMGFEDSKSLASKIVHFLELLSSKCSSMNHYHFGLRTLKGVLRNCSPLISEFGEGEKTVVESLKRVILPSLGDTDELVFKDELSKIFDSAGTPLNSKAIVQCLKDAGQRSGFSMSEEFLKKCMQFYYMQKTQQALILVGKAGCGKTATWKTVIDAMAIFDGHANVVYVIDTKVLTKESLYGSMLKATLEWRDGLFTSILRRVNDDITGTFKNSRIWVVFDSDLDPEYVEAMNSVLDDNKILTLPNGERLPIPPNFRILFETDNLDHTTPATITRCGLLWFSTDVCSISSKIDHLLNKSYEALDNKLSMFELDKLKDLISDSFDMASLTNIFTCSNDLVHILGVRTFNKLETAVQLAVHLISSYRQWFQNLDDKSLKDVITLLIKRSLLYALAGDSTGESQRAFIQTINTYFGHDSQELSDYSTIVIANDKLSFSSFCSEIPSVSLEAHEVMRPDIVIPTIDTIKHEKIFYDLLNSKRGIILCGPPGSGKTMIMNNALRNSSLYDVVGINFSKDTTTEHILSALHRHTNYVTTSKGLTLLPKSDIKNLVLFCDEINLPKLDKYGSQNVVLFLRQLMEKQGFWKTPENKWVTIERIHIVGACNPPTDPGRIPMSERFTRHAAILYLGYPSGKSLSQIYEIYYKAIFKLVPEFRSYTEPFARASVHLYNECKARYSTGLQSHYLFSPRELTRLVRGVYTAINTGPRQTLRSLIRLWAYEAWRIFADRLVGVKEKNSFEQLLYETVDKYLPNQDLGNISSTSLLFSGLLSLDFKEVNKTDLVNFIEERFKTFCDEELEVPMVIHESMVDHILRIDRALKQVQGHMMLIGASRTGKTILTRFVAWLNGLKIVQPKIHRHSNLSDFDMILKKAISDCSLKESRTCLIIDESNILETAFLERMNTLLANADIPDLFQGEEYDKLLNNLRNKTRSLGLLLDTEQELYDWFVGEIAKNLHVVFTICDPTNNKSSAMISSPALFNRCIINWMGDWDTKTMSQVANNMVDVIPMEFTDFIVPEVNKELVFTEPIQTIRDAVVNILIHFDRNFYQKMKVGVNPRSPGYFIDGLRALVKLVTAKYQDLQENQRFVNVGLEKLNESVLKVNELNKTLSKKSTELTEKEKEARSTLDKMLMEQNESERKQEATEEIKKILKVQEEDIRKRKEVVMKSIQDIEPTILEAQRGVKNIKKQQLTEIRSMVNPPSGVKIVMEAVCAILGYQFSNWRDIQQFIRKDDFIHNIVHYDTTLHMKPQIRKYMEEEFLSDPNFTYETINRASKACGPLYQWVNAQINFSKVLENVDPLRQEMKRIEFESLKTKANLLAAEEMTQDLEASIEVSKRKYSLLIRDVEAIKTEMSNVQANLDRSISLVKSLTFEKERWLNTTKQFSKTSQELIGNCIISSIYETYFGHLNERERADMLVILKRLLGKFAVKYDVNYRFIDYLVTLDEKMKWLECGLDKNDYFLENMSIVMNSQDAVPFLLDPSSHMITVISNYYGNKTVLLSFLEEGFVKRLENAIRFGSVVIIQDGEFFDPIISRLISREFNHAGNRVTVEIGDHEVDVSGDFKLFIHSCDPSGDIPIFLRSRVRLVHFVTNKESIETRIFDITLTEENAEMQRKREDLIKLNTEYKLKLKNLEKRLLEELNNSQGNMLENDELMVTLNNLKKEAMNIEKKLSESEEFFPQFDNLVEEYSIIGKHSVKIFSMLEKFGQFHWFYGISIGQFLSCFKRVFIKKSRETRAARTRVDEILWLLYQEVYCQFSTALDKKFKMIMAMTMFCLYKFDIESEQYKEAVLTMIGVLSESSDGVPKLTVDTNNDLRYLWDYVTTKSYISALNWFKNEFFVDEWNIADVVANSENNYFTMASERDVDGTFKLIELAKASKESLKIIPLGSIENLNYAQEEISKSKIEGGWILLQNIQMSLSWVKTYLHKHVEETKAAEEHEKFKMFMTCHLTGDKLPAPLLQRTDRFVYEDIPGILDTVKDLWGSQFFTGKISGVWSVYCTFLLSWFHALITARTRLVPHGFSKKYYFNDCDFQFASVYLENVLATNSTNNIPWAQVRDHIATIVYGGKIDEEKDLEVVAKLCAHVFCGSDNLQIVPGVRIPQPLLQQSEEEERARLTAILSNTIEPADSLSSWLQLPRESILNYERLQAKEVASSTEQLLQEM
yeast dynein complex, wild-type (WT), sequence (P40960 whole entry, chain 2 of 4): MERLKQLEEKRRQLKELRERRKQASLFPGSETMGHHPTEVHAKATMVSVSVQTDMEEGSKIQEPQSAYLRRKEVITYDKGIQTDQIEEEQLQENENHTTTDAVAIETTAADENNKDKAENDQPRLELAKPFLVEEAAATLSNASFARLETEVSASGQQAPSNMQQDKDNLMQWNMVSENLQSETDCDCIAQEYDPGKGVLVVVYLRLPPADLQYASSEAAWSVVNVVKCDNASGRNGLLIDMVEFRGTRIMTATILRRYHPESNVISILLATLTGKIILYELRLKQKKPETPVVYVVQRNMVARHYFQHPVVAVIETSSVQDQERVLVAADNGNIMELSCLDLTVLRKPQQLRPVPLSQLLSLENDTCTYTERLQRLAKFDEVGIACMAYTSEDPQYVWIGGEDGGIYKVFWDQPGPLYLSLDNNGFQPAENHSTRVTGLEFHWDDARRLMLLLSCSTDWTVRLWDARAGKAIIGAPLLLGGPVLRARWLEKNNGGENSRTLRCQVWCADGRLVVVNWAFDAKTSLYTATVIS
yeast dynein complex, wild-type (WT), sequence (Q04949 whole entry, chain 3 of 4): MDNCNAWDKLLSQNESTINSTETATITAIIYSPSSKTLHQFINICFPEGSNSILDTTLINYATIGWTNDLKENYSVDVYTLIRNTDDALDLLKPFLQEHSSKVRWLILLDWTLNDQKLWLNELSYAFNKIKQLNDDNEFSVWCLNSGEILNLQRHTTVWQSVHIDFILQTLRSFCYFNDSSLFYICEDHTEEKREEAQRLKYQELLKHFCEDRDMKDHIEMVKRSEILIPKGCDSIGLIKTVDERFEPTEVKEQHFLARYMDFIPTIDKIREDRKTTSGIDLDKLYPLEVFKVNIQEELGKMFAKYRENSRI
yeast dynein complex, wild-type (WT), sequence (Q02647 whole entry, chain 4 of 4): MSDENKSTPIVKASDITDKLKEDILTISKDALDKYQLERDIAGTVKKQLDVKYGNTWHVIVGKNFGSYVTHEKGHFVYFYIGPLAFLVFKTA

On to B1, for which, in the data set “mass photometry”, the “stoichiometry N” value came to 2.
Turning to B2, the “stoichiometry N” value in data set [1] is 1 and 2 Pac1:Ndl1; in “mass photometry”, 2. Further, the binding result in data set [2] and in data set [3] was “binds” each time.
With B3, the “stoichiometry N” value in “mass photometry” was 2. Also, the binding result in data set [2] is reported as “binds”.
Regarding B4, the binding result in data set [2] was “binds”.
Take B5: the “stoichiometry N” value in data set [4] turned out to be 1.
For B6, the binding result in data set [2] was “binds”.
